Changes are numbered by the printed parent chain.

Sequences and labels used below:
B1: anti-IL-6 Fab, heavy chain S30G (Fab, V domains shown)
VH: EVQLVESGGGLVQPGGSLRLSCAASGFTFGPFAMSWVRQAPGKGLEWVAKISPGGSWTYYSDTVTGRFTFSLDTSKSTAYLQMNSLRAEDTAVYYCARQLWGYYALDIWGQGTLVTVSS
VL: DIQLTQSPSSLSASVGDRVTITCSASISVSYMYWYQQKPGKAPKLLIYDMSNLASGVPSRFSGSGSGTDFTLTISSLQPEDFATYYCMQWSGYPYTFGQGTKVEIK
notes: see m39
B2: anti-IL-6 Fab, heavy chain S56H (Fab, V domains shown)
VH: B1 VH with G30S, S56H
VL: B1 VL
notes: see m39
B3: anti-IL-6 Fab, heavy chain S35H (Fab, V domains shown)
VH: B1 VH with G30S, S35H
VL: B1 VL
notes: see m39
B4: anti-IL-6 Fab, heavy chain S61K (Fab, V domains shown)
VH: B1 VH with G30S, S61K
VL: B1 VL
notes: see m39
B5: anti-IL-6 Fab, heavy chain T58R (Fab, V domains shown)
VH: B1 VH with G30S, T58R
VL: B1 VL
notes: see m39
B6: anti-IL-6 Fab, heavy chain S61R (Fab, V domains shown)
VH: B1 VH with G30S, S61R
VL: B1 VL
notes: see m39
B7: anti-IL-6 Fab, heavy chain S30Y (Fab, V domains shown)
VH: B1 VH with G30Y
VL: B1 VL
notes: see m39
B8: anti-IL-6 Fab, heavy chain T63E (Fab, V domains shown)
VH: B1 VH with G30S, T63E
VL: B1 VL
notes: see m39
B9: anti-IL-6 Fab, heavy chain S61A (Fab, V domains shown)
VH: B1 VH with G30S, S61A
VL: B1 VL
notes: see m39
B10: anti-IL-6 Fab, heavy chain T28Y (Fab, V domains shown)
VH: B1 VH with T28Y, G30S
VL: B1 VL
notes: see m39
B11: anti-IL-6 Fab, heavy chain S30W (Fab, V domains shown)
VH: B1 VH with G30W
VL: B1 VL
notes: see m39
B12: anti-IL-6 Fab, heavy chain T28A (Fab, V domains shown)
VH: B1 VH with T28A, G30S
VL: B1 VL
notes: see m39
B13: anti-IL-6 Fab, heavy chain V64F (Fab, V domains shown)
VH: B1 VH with G30S, V64F
VL: B1 VL
notes: see m39
B14: anti-IL-6 Fab, heavy chain T63Q (Fab, V domains shown)
VH: B1 VH with G30S, T63Q
VL: B1 VL
notes: see m39
B15: anti-IL-6 Fab, heavy chain T65Y (Fab, V domains shown)
VH: B1 VH with G30S, T65Y
VL: B1 VL
notes: see m39
B16: anti-IL-6 Fab, heavy chain T28K (Fab, V domains shown)
VH: B1 VH with T28K, G30S
VL: B1 VL
notes: see m39
B17: anti-IL-6 Fab, heavy chain V64A (Fab, V domains shown)
VH: B1 VH with G30S, V64A
VL: B1 VL
notes: see m39
B18: anti-IL-6 Fab, heavy chain T28E (Fab, V domains shown)
VH: B1 VH with T28E, G30S
VL: B1 VL
notes: see m39
B19: anti-IL-6 Fab, heavy chain T65D (Fab, V domains shown)
VH: B1 VH with G30S, T65D
VL: B1 VL
notes: see m39
B20: anti-IL-6 Fab, heavy chain S56R (Fab, V domains shown)
VH: B1 VH with G30S, S56R
VL: B1 VL
notes: see m39
B21: anti-IL-6 Fab, heavy chain T63D (Fab, V domains shown)
VH: B1 VH with G30S, T63D
VL: B1 VL
notes: see m39
B22: anti-IL-6 Fab, heavy chain T65A (Fab, V domains shown)
VH: B1 VH with G30S, T65A
VL: B1 VL
notes: see m39
B23: anti-IL-6 Fab, heavy chain T65G (Fab, V domains shown)
VH: B1 VH with G30S, T65G
VL: B1 VL
notes: see m39
B24: anti-IL-6 Fab, heavy chain S35Q (Fab, V domains shown)
VH: B1 VH with G30S, S35Q
VL: B1 VL
notes: see m39
B25: anti-IL-6 Fab, heavy chain T63K (Fab, V domains shown)
VH: B1 VH with G30S, T63K
VL: B1 VL
notes: see m39
B26: anti-IL-6 Fab, heavy chain T65I (Fab, V domains shown)
VH: B1 VH with G30S, T65I
VL: B1 VL
notes: see m39
B27: anti-IL-6 Fab, heavy chain T63G (Fab, V domains shown)
VH: B1 VH with G30S, T63G
VL: B1 VL
notes: see m39
B28: anti-IL-6 Fab, heavy chain T65L (Fab, V domains shown)
VH: B1 VH with G30S, T65L
VL: B1 VL
notes: see m39
B29: anti-IL-6 Fab, heavy chain T58V (Fab, V domains shown)
VH: B1 VH with G30S, T58V
VL: B1 VL
notes: see m39
B30: anti-IL-6 Fab, heavy chain V48Q (Fab, V domains shown)
VH: B1 VH with G30S, V48Q
VL: B1 VL
notes: see m39
B31: anti-IL-6 Fab, heavy chain T58K (Fab, V domains shown)
VH: B1 VH with G30S, T58K
VL: B1 VL
notes: see m39
B32: anti-IL-6 Fab, heavy chain V48L (Fab, V domains shown)
VH: B1 VH with G30S, V48L
VL: B1 VL
notes: see m39

Sequence of recombinant human IL-6 (P05231 30-212 limits assumed): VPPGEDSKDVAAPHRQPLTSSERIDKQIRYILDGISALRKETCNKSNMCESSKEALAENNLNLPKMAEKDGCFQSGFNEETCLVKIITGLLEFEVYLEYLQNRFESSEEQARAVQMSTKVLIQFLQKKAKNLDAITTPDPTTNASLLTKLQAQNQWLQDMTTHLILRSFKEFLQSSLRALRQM

This assay concerns the target recombinant human IL-6 (human, UniProt P05231 30-212). The assay is described as follows: SPR, IL-6 on CM5 chip, Fab lysate, 25 C. The procedure:
Three ranges of antigen density (100-150 RU, 300-400 RU, 400-600 RU) were obtained by using variable flow times for each chip channel, later blocked with ethanolamine. Supernatants of the 96-well filtered culture lysates were injected at 50 μL/min for 120 seconds. Fitting of dissociation curves (300 seconds) to single exponential decay curve was used for the determination of dissociation rates (koff). Chip surfaces were regenerated with 10 mM Glycine pH 1.7 solution injected at 50 μL/min during 60 seconds after every cycle of sample binding and dissociation.
As for B1, the off-rate (koff) was determined as 0.00377 s⁻¹.

As to B2, the koff was determined as 0.0409 s⁻¹. The figure for B3 is 0.00392 s⁻¹; for B4 it is 0.00558 s⁻¹; for B5 it is 0.00425 s⁻¹. On to B6, for which the off-rate (koff) was 0.00585 s⁻¹. For B7, the off-rate constant (koff) is 0.00352 s⁻¹. As for B8, the koff worked out at 5.53e-05 s⁻¹.

With B9, the koff is 0.00604 s⁻¹. As to B10, the off-rate (koff) was determined as 0.0039 s⁻¹.

In the case of B11, the off-rate (koff) worked out at 0.00369 s⁻¹. Consider B12, for which the koff came out at 0.00396 s⁻¹. On to B13, for which the koff came out at 0.00684 s⁻¹. As to B14, the off-rate (koff) came out at 0.0057 s⁻¹. The figure for B15 is 0.00574 s⁻¹; for B16 it is 0.00408 s⁻¹. The same measure for B17: 0.00643 s⁻¹; for B18: 0.00428 s⁻¹; for B19: 0.00614 s⁻¹. Turning to B20, the koff is 0.00509 s⁻¹. Turning to B21, the off-rate constant (koff) was 0.00603 s⁻¹.

As for B22, the koff turned out to be 0.00615 s⁻¹. The same measure for B23: 0.0057 s⁻¹. For the molecule B24, the koff worked out at 0.00354 s⁻¹. For B25, the dissociation rate constant (koff) was 0.00611 s⁻¹.

For the molecule B26, the koff came to 0.00615 s⁻¹. Consider B27, for which the koff is 0.0539 s⁻¹. Regarding B28, the off-rate (koff) came out at 0.00592 s⁻¹.

With B29, the koff is 0.0562 s⁻¹. The same measure for B30: 0.0034 s⁻¹. In the case of B31, the koff worked out at 0.00492 s⁻¹. Take B32: the koff worked out at 0.00517 s⁻¹.

As a reminder, the koff is a measure of how fast the partners let go of each other.
